Laboratory results taken from the supplement of paper PMC9170038.

System: K4 kissing-loop RNA reporter
Assay: apparent KD of K4 kissing-loop reporter; higher = weaker reporter binding
Settings: Eterna round: R107
Description: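 RNA-MaP round R107: designed RNA switches with theophylline, tryptophan, arginine or FMN aptamers are transcribed on-chip within common flanks. They are titrated with a labelled K4 kissing-loop RNA reporter in RNA-MaP buffer (100 mM Tris pH 7.5, 80 mM KCl, 4 mM MgCl2), without ligand or with the indicated ligand. Median apparent KD per design.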

[1] = input ligand: theophylline 20 uM
[2] = input ligand: tryptophan 2.4 mM
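Note: bound reporter read as fluorescence of individual clusters on recovered sequencing chips by microscopy, with normalized cluster intensities fitted with a binding model.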

Sequence | apparent KD of K4 kissing-loop reporter (input ligand: FMN 200 uM) | apparent KD of K4 kissing-loop reporter (input ligand: arginine 13.2 mM) | apparent KD of K4 kissing-loop reporter (input ligand: none) | apparent KD of K4 kissing-loop reporter [1] | apparent KD of K4 kissing-loop reporter [2]
UGUAUGUGUCAGCGAGUGAUGUUCGACGAUACCAGACUCGAUAGAGUCCCUUGGCAGCGUAAUGCAUGCCAAACUGGCACAUACU [#SwitchBubble 13 #K4Early] | 0.657 µM | 0.532 µM | 0.682 µM | 0.594 µM | 0.6 µM
UGUCAUGGAAACAUGAACGUUAAAAUAAAUCGAGGACCGGUACGGCCGCCACUCGUAUAGCGGUCAGUGAUGUUGACUGUAAUAA [KL-SSTryp-A form2 sub10] | 0.101 µM | 0.121 µM | 0.11 µM | 0.116 µM | 0.0943 µM
UGUCAUUGGUCGGCCGCCACUAGGACCGGGAUUUUUCUAGUGAUGUUAGUUUGGUCGGCCGCCACUAGGACCGGGACCGAUGACU [KL-SSTryp-B13 #DoubleAptamer] | 0.638 µM | 0.345 µM | 0.644 µM | 0.453 µM | 0.0868 µM
UGUCAUUGGUCGGCCGCCACUAGGACCGGGUAUAACCUAGUGAUGUUAGUAAAUACGGCCGCCACUAGGACCGGGACCGAUGACU [KL-SSTryp-B18 #DoubleAptamer] | 0.415 µM | 0.296 µM | 0.583 µM | 0.471 µM | 0.102 µM
UGUCAUUGGUCGGCCGCCACUAGGACCGGGUUUUACCUAGUGAUGUUAGUAUAAACGGCCGCCACUAGGACCGGGACCGAUGACU [KL-SSTryp-B24 #DoubleAptamer] | 0.846 µM | 0.447 µM | 0.547 µM | 0.434 µM | 0.122 µM
UGUCAUUGGUCGGCCGCCACUAUAAUAAAAGAGUGAUGUUCUAAAAGACGGACAAAAGUCUGUCAUAGGACCGGGACCGAUGACU [TrypBS 25 #SwitchBubble #StaticStem] | 0.822 µM | 0.43 µM | 0.589 µM | 0.131 µM | 0.616 µM
UGUCAUUGGUCGGCCGCCACUUCAUAAAGAGUGAUGUUCUAAAAGACGGAUCGAAAGAUCUGUCGAAGGACCGGGACCGAUGACU [TrypBS 18 #SwitchBubble #StaticStem] | 1.41 µM | 0.641 µM | 1.2 µM | 0.915 µM | 0.279 µM
UGUCAUUGGUCGGCCGCCACUUCAUAAAGAGUGAUGUUCUGAAAGACGGAUCGAAAGAUCUGUCGAAGGACCGGGACCGAUGACU [FiskerMod 1 - Jieux - Same State - Tryptophan B] | 1.16 µM | 1.2 µM | 2.08 µM | 1.43 µM | 0.236 µM
UGUCAUUGGUCGGCCGCCACUUCAUAAAGAGUGAUGUUCUUAAAGACGGAUCGAAAGAUCUGUCGAAGGACCGGGACCGAUGACU [FiskerMod 8 - Jieux - Same State - Tryptophan B] | 1.33 µM | 1.08 µM | 1.5 µM | 0.927 µM | 0.196 µM
UGUCAUUGGUCGGCCGCCACUUCAUGUAGAGUGAUGUUCUGUAAGACGGAUCGAAAGAUCUGUCGAAGGACCGGGACCGAUGACU [FiskerMod 13 - Jieux - Same State - Tryptophan B] | 1.09 µM | 0.303 µM | 0.855 µM | 0.868 µM | 0.326 µM
UGUCAUUGGUCGGCCGCCACUUCGGUCAAAGACCAUAAAGAGUGAUGUUCUUAAGACGAAAGUCGAAGGACCGGGACCGAUGACU [TrypBS 11 #SwitchBubble #K4Middle] | 1.11 µM | 0.744 µM | 1.2 µM | 0.782 µM | 0.273 µM
UGUCAUUGGUCGGCCGCCACUUUAUAUGGAGUGAUGUUUUGUAGAUUGUGUUGAAAGGUGUGGUGAAGGACCGGGACCGAUGACU [FiskerMod 25 - Jieux - Same State - Tryptophan B] | 0.803 µM | 0.617 µM | 1.01 µM | 1.01 µM | 0.967 µM
UGUCAUUGGUCUGAUACCAGAAGAUAUUCUGGAGUGAUGUUCCAAGUACGACAAAGUCGCUUCCCUUGGCAGCAGACCGAUGACU [TheoBS 20 #SwitchBubble 13 #StaticStem] | 0.471 µM | 0.195 µM | 0.617 µM | 0.501 µM | 0.69 µM
UGUCAUUGGUCUGAUACCAGUUGAUGACGAAUACGUCAACUGGAGUGAUGUUCCUAAAACAACCCUUGGCAGCAGACCGAUGACU [TheoBS 1 #SwitchBubble #StaticStem] | 0.788 µM | 0.511 µM | 0.658 µM | 0.709 µM | 0.564 µM
UGUCGAGUGAUGUUCGAUUUGGUGCAUGCAGAGGAUAUAGGGUGGGCUAGAAGGCUGAAAAGUGCUUCGAGUGAUGUUCGAAGUU [Exclusion FMN A GF10] | 0.117 µM | 0.113 µM | 0.1 µM | 0.1 µM | 0.0973 µM
UGUGUGUAGGGAAGGAGCGCCGAGAGAAGAAGAAAAGAGUGAUGUUCAAGACAAUAAAGACGGCAGGUAGGUCGCCCUGUGUGUG [Default title] | 0.756 µM | 0.706 µM | 0.516 µM | 0.517 µM | 0.267 µM
UGUGUUUACCUGACUCAGUGAUGUUGAGAAGGAGCGUGAGAAAUCACAGGUAGGUCGCUCAACCUAAAUUCAGGUGAGCACUAAA | 0.268 µM | 0.197 µM | 0.325 µM | 0.277 µM | 0.253 µM
UGUGUUUACCUGACUCAGUGAUGUUGAGAAGGAGCGUGCAAACGCACAGGUAGGUCGCUCAACCUAAAUUCAGGUGAGCACUAAA | 0.568 µM | 0.38 µM | 0.453 µM | 0.423 µM | 0.406 µM
UGUGUUUACCUGACUCAGUGAUGUUGAGAAGGAGCGUGCGAAGGCACAGGUAGGUCGCUCAACCUAAAUUCAGGUGAGCACUAAA | 0.249 µM | 0.168 µM | 0.344 µM | 0.281 µM | 0.25 µM
UGUUUUUUUUUGAUGUUUGUUGUAAAAUGGCAGGAUAUCGUAGAGGCGAGAAGGGCUUUUAUGCGUUAUGAGUGAUGUUUGUAGG [vevvmullin] | 0.418 µM | 0.252 µM | 0.381 µM | 0.269 µM | 0.284 µM
UUAAUAAUUCAAGGAUAUGUUUUCUAUUUCGAGUGAUGUUCGGAAUUAAUAAAUUUAAAAGAUUAUACAGAAGGUGAUAGAUAGU [Cynwulf-mod#3] | 0.0895 µM | 0.0825 µM | 0.0909 µM | 0.0881 µM | 0.0759 µM

Sequence | apparent KD of K4 kissing-loop reporter (input ligand: FMN 200 uM) | apparent KD of K4 kissing-loop reporter (input ligand: arginine 13.2 mM) | apparent KD of K4 kissing-loop reporter (input ligand: none) | apparent KD of K4 kissing-loop reporter [1] | apparent KD of K4 kissing-loop reporter [2]
UUAAUAAUUCAAGGAUAUGUUUUCUAUUUCGAGUGAUGUUCGGAAUUAAUAAAUUUAAAAGAUUAUACAGAAGGUGAUGGAUAGU [Cynwulf-mod#4] | 0.114 µM | 0.117 µM | 0.109 µM | 0.129 µM | 0.0903 µM
UUACGGUCCUCGGCCGCCACUCAUAGUGAUGUUAUGCUGCCUGAAGGCACCGGACCUGGAUAUCAGAGGACCGGGAGGCCAUUCG [theeternabot_exclusion_KL_Trp_B_6] | 0.793 µM | 0.59 µM | 0.81 µM | 0.56 µM | 0.544 µM
UUAGAGGCCCAGUGAUGUUGGGUGGUUGGGCGAGGACCGGUACGGCCGCCACUCGCCGCGGAACUAUCGGAAUCUCGCUCGGCUA [Aninxearqu] | 0.277 µM | 0.233 µM | 0.239 µM | 0.309 µM | 0.256 µM
UUAGCCCUAUAGGGCAAGACCUAUACUGAUACCAGAGGGUAUACCCUCCCUUGGCAGCGGAUCGAGUGAUGUUCGUAAGGUCAUU [AK4.4 SS Theophylline A] | 0.741 µM | 0.73 µM | 0.844 µM | 0.776 µM | 0.572 µM
UUAGGAGUGGAAGGAUAUCCUGGUGUGGGUGAUGUUAGUGAUGUUGAAAGUGCAGUGAUGUUGCGCGGAGAAGGUCCGGUGUUGA [BDazzled - #7 - Exc. FMN B] | 0.18 µM | 0.153 µM | 0.173 µM | 0.256 µM | 0.157 µM
UUAGGAGUGGGAGGAUAUCCUGGUGUGGGUGAUGUUAGUGAUGUUGAAAGUGUAGUGAUGUUGUGCGGAGAAGGUCCAGUGUUGA [BDazzled - #10 - Exc. FMN B] | 0.504 µM | 0.295 µM | 0.459 µM | 0.646 µM | 0.292 µM
UUAGUUGAAAGUGAUACCAGACAAGUUAAGAGAAGAAAUUAAGUUGGAGUGAUGUUCCAAGUCCCUUGGCAGCACAUUGUAAUUU [Same State Theophylline B GF12] | 0.101 µM | 0.211 µM | 0.129 µM | 0.256 µM | 0.126 µM
UUAUACAACUGAAGGAGCGCCAGUGAUGUUGGCGUGACGACUGCUUCCUUCGCCGAGUCCUGGCAGGUAGGUCGCAGUUGCUGAA [Oratgere] | 0.0826 µM | 0.0972 µM | 0.113 µM | 0.099 µM | 0.0948 µM
UUAUAUCUCUGACUUUCACUUUGCGUAUCUGAGGAUAUCUGAAUUCAGAGAAGGCAGUGAUGUUGCUUUGCUGUGUGUCUGAGAA [AK2 Exc FMN A] | 0.702 µM | 0.464 µM | 0.526 µM | 0.499 µM | 0.372 µM
UUAUGUUUAGUUCACCCAGUGAUGUUGGAAGGAGCGUGCGAAAGCACAGGUAGGUCGCCAACCUUAAAGUGUCUUGAUUAUCUAA [JR_Nu_ExcArginiA_Sub029] | 0.4 µM | 0.499 µM | 0.411 µM | 0.386 µM | 0.364 µM
UUAUUAAUAACAGAUACCAGUCCAGAAUGAAUACUAUAGUGAUGUUAUAAUAAAGGGAAGGACCCUUGGCAGCUGUAAUAUAUUU [AstrosSSTheB#1] | 0.431 µM | 0.381 µM | 0.501 µM | 0.338 µM | 0.368 µM
UUCAGUGACAUACGAGUGAUGUUCGUAAUACGAGGACCGGUACGGCCGCCACUCGCACGUCGGCAGUUUGUUCAUGCAUCAGACU | 0.226 µM | 0.16 µM | 0.259 µM | 0.255 µM | 0.514 µM
UUCAGUGAUGAUGAACACUGUUGUAUAAACUAGGAUAUGCUGAUAAGCAGAAGGAGUGAUGUUCCGUUCAUCAUCAGAAUUAAAU [KL-XFMN-A4] | 0.619 µM | 0.378 µM | 0.371 µM | 0.407 µM | 0.255 µM
UUCGAAAGUCGAAGGAGCGCUGGCGGUCAUAGACUAUAUCUGUAGUGAUGUUACAGAUUCCAGCAGGUAGGUCGCGACAGAGACA [Arg B SS t18b] | 0.124 µM | 0.0884 µM | 0.107 µM | 0.0898 µM | 0.108 µM
UUCGAUCAGUGAUGUUGAUCAAUAGUCGAAGGAGCGCUAUAGAUAGCAGGUAGGUCGCGGCUACAGGGUGUUAAGACACCCAGAA [#13 K4 Arginine A Same State] | 0.534 µM | 0.45 µM | 0.453 µM | 0.477 µM | 0.488 µM
UUCGAUCAGUGAUGUUGAUCAUCAGUCGAAGGAGCGCUAGAGAUAGCAGGUAGGUCGCGACUGCAAGGUGUGAGAACACCUCGAA [Arg A SS t9a] | 0.457 µM | 0.358 µM | 0.487 µM | 0.444 µM | 0.255 µM
UUCUUGAUGGAAACAUCGAGUAUUACUGAUACCAGUAUCGAUAGAUACCCUUGGCAGCAGAAUCAGUAAUAACGAGUGAUGUUCG [Ex Theophylline A K4 5] | 0.509 µM | 0.494 µM | 0.505 µM | 0.567 µM | 0.48 µM
UUGAGCCGGACGUAAGUCCGGCUCUGCGAGCGAGGACCGGUACGGCCGCCACUCGGUGCAGUGAUGUUGCAUGGCCGCAAGGCCG [#2 Exclusion - Tryptophan A Attempt #5 (HarryS)] | 0.325 µM | 0.233 µM | 0.235 µM | 0.394 µM | 0.278 µM
UUGCAAGAGUCGGCCGCCACUCCGGGCCCUAUAAAUGGGCGCAGUGAUGUUGCGGCUAGGCCUCUGAGGACCGGGACUUUGUAGC [Ateusraor] | 0.051 µM | 0.0554 µM | 0.0785 µM | 0.0829 µM | 0.111 µM
UUGGAAAUCAGAAGGAGCGUCUAAAAUGAAGGAACCAGUGAUGUUGGUUUUAUUUAAUGAAGACAGGUAGGUCGCUGAAUUUUUA [Same State Arginie B GF 18] | 0.0914 µM | 0.101 µM | 0.0944 µM | 0.116 µM | 0.0915 µM
UUGGCAGUGAUGUUGCCAGAGCUCACCGAAGGAGCGCGUGAAAACGCAGGUAGGUCGCGGUAGCGGAGUGAUUCUCCGCGAGGGC [Same State Arginine A GF 21] | 0.0445 µM | 0.0717 µM | 0.0772 µM | 0.0803 µM | 0.0879 µM
